Experimental findings from patent US20240343803A1 (SHANDONG SIMCERE BIOPHARMACEUTICAL, published 2024) are described below.

Assay [1] concerns the target T1, full-length human TIGIT on CHO-K1 cells (CHO-K1 human TIGIT) (human, UniProt Q495A1 22-244).
T1 construct: NCBI XP_024309156.1; entry includes the signal peptide; also called high expression strain 1D2; medium expression strain 2D10
T1 sequence: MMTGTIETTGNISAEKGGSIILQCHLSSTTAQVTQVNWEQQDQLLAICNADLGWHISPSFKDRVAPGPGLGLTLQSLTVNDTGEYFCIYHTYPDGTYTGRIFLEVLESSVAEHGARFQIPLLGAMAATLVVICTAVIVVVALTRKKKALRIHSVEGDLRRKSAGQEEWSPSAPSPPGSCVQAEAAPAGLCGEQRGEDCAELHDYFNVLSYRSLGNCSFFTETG
Put plainly: cell ELISA, medium expression strain. The protocol:
(§1) After discarding the culture supernatant, the cells were fixed with a cell fixation solution (Beyotime, CAT #P0098), 50 μL/well, at room temperature for 1 hour. After washing once with 0.05% Tween 20-PBS on the Microplate Washer, the plate was added with 5% skim milk powder-PBS, 250 μL/well, and incubated at 37° C. for 2-4 hours. After washing 3 times with 0.05% Tween 20-PBS on the Microplate Washer, the plate was added with purified mouse monoclonal antibodies (diluted to 13 nM with 1% BSA, diluted by 3 fold serial dilution for 12 concentration points), 50 µL/well, incubated at 37° C. for 1.5-2 hours. […] After washing 3 times with 0.05% Tween 20-PBS on the Microplate Washer, the plate was added with TMB chromogenic solution (KPL, CAT #52-00-03), 50 μL/well, and incubated at 37° C. for 10 minutes. 1M HCL, 50 μL/well, was then added into the plate to terminate the reaction, and the OD450 nm was read by a microplate reader (Biotek, Powerwave HT). […] (c) The effect of anti-TIGIT mouse monoclonal antibodies blocking the interaction between Bio-CD155-His and CHO-K1 human TIGIT detected by FACS

Assay [2] concerns the target T1, full-length human TIGIT on CHO-K1 cells …. Put plainly: cell ELISA, low expression strain. The protocol: as §1
(In an ELISA, binding on a coated surface is turned into a signal by an enzyme label.)

The target is the same in assay [3]. Put plainly: cell ELISA, high expression strain. The protocol:
as §1

Assay [4] has the same target. Put plainly: FACS, competition: Bio-CD155-His to CHO-K1 human TIGIT. How it is done:
The collected cells were washed once with PBS (Hyclone, CAT #SH30256), resuspended to 2×10⁵/40 μL with 1% BSA-PBS. The antibodies were diluted to 210 nM with 1% BSA-PBS (diluted by 3-fold serial dilution for 12 concentration points). […] The 40 μL cells were then mixed with 40 μL diluted antibodies and 40 μL diluted Bio-CD155-His, and then incubated at 4° C. for 60 minutes. The cells were washed twice with PBS, resuspended with APC labeled streptavidin (dilution ratio 1:1700, Biolegend, 405243), 100 μL/well, and incubated at 4° C. for 40 minutes. The cell samples were washed twice with PBS, resuspended with 1% BSA-PBS, 100 μL/well and then analyzed by flow cytometry (BD, Canto II). […] (d) The effect of anti-TIGIT mouse monoclonal antibodies blocking the interaction between human TIGIT and CHO-K1 CD155 detected by ELISA
(In general: In flow cytometry, cells or beads pass a laser one at a time.)

The target in assay [5] is T2, human TIGIT ECD-his (fusion protein of extracellular domain of human TIGIT and His-tag) (human).
T2 construct: entry includes the signal peptide, limits not readable here
T2 chain: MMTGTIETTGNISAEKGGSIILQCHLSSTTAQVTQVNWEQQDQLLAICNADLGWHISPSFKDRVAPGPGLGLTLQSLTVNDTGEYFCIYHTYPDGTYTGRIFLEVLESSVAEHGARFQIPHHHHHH
Put plainly: BIAcore kinetics.

Assay [6] has as its target T3, human TIGIT ECD-hFc (fusion protein of extracellular domain of human TIGIT and human IgG1 Fc fragment) (human).
T3 construct: entry includes the signal peptide, limits not readable here
Put plainly: cell ELISA, competition: hTIGIT ECD-hFc to CHO-K1 CD155. The protocol:
After discarding the culture supernatant, the cells were fixed with a cell fixation solution (Beyotime, CAT #P0098), 50 μL/well, at room temperature for 1 hour. After washing once with 0.05% Tween 20-PBS on the Microplate Washer, the plate was added with 5% skim milk powder-PBS, 250 μL/well, and incubated at 37° C. for 2-4 hours. The plate was then washed 3 times with 0.05% Tween 20-PBS on the Microplate Washer. The mouse monoclonal antibodies were mixed with human TIGIT ECD-hFc (working concentration: 30 ng/mL) and incubated for 0.5 hour. The mixed solution of antigen and antibody was added to the cell plate (50 μL/well). The cells were incubated at 37° C. for 1.5-2 hours and then washed with 0.05% Tween 20-PBS for 3 times on the Microplate Washer. The cell plate was then added with 50 μL/well HRP enzyme-labeled antibodies (Merck, CAT #AP113P) diluted with 1% BSA (Sangon Biotech, CAT #A500023-0100)-PBS at a dilution ratio of 1:5000 and incubated at 37° C. for 1 hour. After washing 3 times with 0.05% Tween 20-PBS on the Microplate Washer, the plate was added with TMB chromogenic solution (KPL, CAT #52-00-03), 50 μL/well, and incubated at 37° C. for 10 minutes. 1M HCL, 50 μL/well, was then added into the plate to terminate the reaction, and the OD450 nm was read by a microplate reader (Biotek, Powerwave HT).

The target in assay [7] is T4, full-length cynomolgus monkey TIGIT on CHO-K1 cells (CHO-K1 cynomolgus monkey TIGIT) (cynomolgus monkey).
T4 construct: NCBI XP_015300911.1; also called cynomolgus monkey TIGIT cells
The experiment in a line: cell ELISA. The protocol:
as §1

Assay [8] concerns the target T5, cynomolgus monkey TIGIT ECD-hFc (extracellular domain of cynomolgus monkey TIGIT and human IgG1 Fc fragment) (cynomolgus monkey).
T5 construct: entry includes the signal peptide, limits not readable here; also called cynomolgus monkey TIGIT-hFc
Put plainly: ELISA.

For assay [9], the target named is T3, human TIGIT ECD-hFc (fusion protein of …). The experiment in a line: ELISA.

B1: TIGIT-F2-005 (antibody, V domains shown)
VH: QVQLQQSGAELVRPGTSVKVSCKASGYAFTNYLIEWVKQRPGQGLEWIGVINPGSGGTNYKEKFKGKATLTADKSSSTAYMQLSSLTSEDSAVYFCARGEYFFFDYWGQGTTLTVSS
VL: DIVMTQSHKFMSTSVGDRVSITCKASQHVSNGVAWYQHKPGQSPKLLIYSASYRYTGVPDRFTGTGSGTDFTFTISSVQAEDLAVYYCQQHYNTPHTFGGGTKLEIK
notes: mouse hybridoma antibody; variable domains as printed for TIGIT-CHI-005; tie rests on the number 005 only; also called mouse antibody TIGIT-005
With B1, the concentration giving a half-maximal response (EC50) turned out to be 386 pM in [1]; 231 pM in assay [2]; 388 pM in assay [3]; 77.8 pM in [7]; 14.7 pM in [8]; 15 pM in [9]. The figures for the 50% inhibitory concentration (IC50) in [4] and in [6] were 174 pM and 133 pM, respectively. Further, the Kd in assay [5] was 33.3 pM. Besides, the off-rate constant (koff) in assay [5] is 4.47e-05 s⁻¹. Moreover, the kon in assay [5] stood at 1.34e+06 M⁻¹ s⁻¹.

B2: RG6058-mIgG2a (antibody, V domains shown)
VH: EVQLQQSGPGLVKPSQTLSLTCAISGDSVSSNSAAWNWIRQSPSRGLEWLGKTYYRFKWYSDYAVSVKGRITINPDTSKNQFSLQLNSVTPEDTAVFYCTRESTTYDLLAGPFDYWGQGTLVTVSS
VL: not shown
notes: mouse IgG2a format by its name; also called Roche RG6058; control antibody RG6058
For B2, the concentration for a half-maximal effect (EC50) in [1] worked out at 984 pM; in assay [2] it was 672 pM; in [3], 1050 pM; in [7], 79.1 pM; in assay [8], 15.2 pM; in [9] it was 10.8 pM. Besides, the IC50 in [4] amounted to 449 pM; in [6], 212 pM. The Kd in [5] turned out to be 211 pM. In addition, in [5], the koff is 0.000141 s⁻¹. This molecule also gave an association rate constant (kon) in assay [5] of 669000 M⁻¹ s⁻¹.

B3: TIGIT-F5-070 (antibody, V domains shown)
VH: QVQLQQPGTELVKPGASVKLSCRASGYTFTNYYMHWVKQRPGRGLEWIGRIDPDSGGSKYNEKFKSKATLTVDKLSSTAYMQLSSLTSEDSAVYYCAREGHYGFYSDYWGQGTTLTVSS
VL: DIQMTQSPASLSASVGETVTITCRVSENIYSYLAWYQQKQGKSPQLLVYNAKTLAEGVPSRFSGSGSGTQFSLKINSLQPEDFGNYYCQHHYGNPLTFGAGTKLDLK
notes: mouse hybridoma antibody; variable domains as printed for TIGIT-CHI-070; tie rests on the number 070 only; also called mouse antibody TIGIT-070
Regarding B3, the EC50 amounted to 664 pM in assay [1]; 375 pM in assay [2]; 613 pM in assay [3]; 27.4 pM in assay [7]; 4.3 pM in assay [8]; 3.9 pM in [9]. Also, the half-maximal inhibitory concentration (IC50) came out at 340 pM in assay [4] and 136 pM in assay [6]. In addition, the dissociation constant (Kd) in [5] is 155 pM. The molecule further came in with a koff in [5] of 0.000117 s⁻¹. In [5], this molecule displayed an association rate constant (kon) of 755000 M⁻¹ s⁻¹.

B4: TIGIT-F2-002 (antibody, V domains shown)
VH: EVQLQESGPGLAKPSQTLSLACSVTGYSITSDSWNWIRKFPGNKLEYMGYISYSGNTYYNPSLKSRISITRDTSKNQFYLQLNSVTTEDTATYYCARLDFSNYGGAVDYWGQGTSVTVSS
VL: DIVMTQSHTFMSTSVGDRVSITCKASQNVRTAVAWYQQKPGQSPKLMIYSASYRYTGVPDRFTGSGSGTDFTFTISSVQAEDLAVYYCQQYYTTPWTFGGGAKLEIQ
notes: mouse hybridoma antibody; variable domains are those printed for the chimeric TIGIT-CHI-002 built from the mouse antibody; tie rests on the number 002 only; also called mouse antibody TIGIT-002
For B4, the EC50 in [1] is 316 pM; in assay [2], 273 pM; in assay [3], 312 pM; in assay [7] it was 110 pM; in assay [8] it was 17 pM; in assay [9], 17.1 pM. Moreover, the 50% inhibitory concentration (IC50) in assay [4] was found to be 204 pM; in assay [6], 141 pM. The molecule also yielded a Kd in [5] of 47.6 pM. Also, the koff in [5] stood at 8.08e-05 s⁻¹. The kon in assay [5] was determined as 1.7e+06 M⁻¹ s⁻¹.

B5: TIGIT-F2-006 (antibody, V domains shown)
VH: EVQLQESGPGLAKPSQTPSLTCSVTGYSMTSDYWNWIRKFPGNKLEYMGYISYSGRTYYNPSLKSRISITRDTSKNQFYLQLNSVTTEDTATYYCARGDYSNYGGAMYDWGQGTSVTVSS
VL: DIVMTQSHKFMSTSVGDRVSITCRASQGVSTTIAWYQQKPGQSPKLLIYSASYRYTGVPDRFTGSGSGTDFTFTISGVQAEDLAVYYCQQYYSSPFTFGGGTKLEIK
notes: mouse hybridoma antibody; variable domains as printed for TIGIT-CHI-006; tie rests on the number 006 only; also called mouse antibody TIGIT-006
As to B5, the half-maximal effective concentration (EC50) in assay [1] was 540 pM; in assay [2] it was 320 pM; in assay [3] it was 480 pM; in assay [7], 61.6 pM; in assay [8] it was 32.7 pM; in assay [9], 20.8 pM. For the same molecule, the IC50 in [4] was determined as 215 pM; in [6], 150 pM. For the same molecule, the Kd in [5] was 41.4 pM. Also, the koff in assay [5] amounted to 3.32e-05 s⁻¹. Also, the kon in assay [5] stood at 800000 M⁻¹ s⁻¹.

What is called EC50 is the concentration needed to bring the measured effect to its halfway point. Broadly, the IC50 is the concentration needed to halve the response being measured. Usually Kd stands for the constant that tells how readily two partners part at equilibrium. As usually defined, the koff is the first-order rate constant of dissociation. The kon is the rate constant with which the complex forms.
